According to PMC6422423, “Constitutively active BRS3 is a genuinely orphan GPCR in placental mammals” (PLoS Biology, 2019):
Blank lines part the entries; values can stand above or below the binder they belong to. Where no end group is shown, it is not given here.

Tests used:
Settings in all cases: one partner purified
[1] = target: T1, mouse bombesin receptor subtype-3 (mouse, UniProt O54798 1-399); assay: radioligand binding; displacement of 50 pM [125I]-Tyr-NMB by unlabeled peptide on disaggregated transfected HEK293 cells; 1 h at 21°C; 24.5 mM HEPES pH 7.4, 98 mM NaCl; bound tracer separated by centrifugation
T1 construct: bombesin receptor subtype-3 of mouse (Mus musculus); also called mBRS3; mouse BRS3; source: HEK293, transiently transfected, on cells
T1 sequence (looked up): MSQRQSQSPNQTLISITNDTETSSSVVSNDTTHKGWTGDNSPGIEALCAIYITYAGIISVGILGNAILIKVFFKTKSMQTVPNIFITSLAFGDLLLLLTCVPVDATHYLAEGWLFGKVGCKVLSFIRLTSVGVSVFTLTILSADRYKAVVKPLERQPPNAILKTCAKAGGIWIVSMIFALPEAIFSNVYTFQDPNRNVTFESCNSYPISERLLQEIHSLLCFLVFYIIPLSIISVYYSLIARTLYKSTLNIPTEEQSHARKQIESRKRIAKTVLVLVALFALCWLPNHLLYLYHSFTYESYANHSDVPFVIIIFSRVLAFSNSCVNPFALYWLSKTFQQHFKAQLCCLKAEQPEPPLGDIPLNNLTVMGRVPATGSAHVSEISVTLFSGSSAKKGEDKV

[2] = target: T2, human bombesin receptor subtype-3 (human, UniProt P32247 1-399); assay: as above
T2 construct: bombesin receptor subtype-3 of human (Homo sapiens); also called hBRS3; human BRS3; source: HEK293, transiently transfected, on cells
T2 sequence (looked up): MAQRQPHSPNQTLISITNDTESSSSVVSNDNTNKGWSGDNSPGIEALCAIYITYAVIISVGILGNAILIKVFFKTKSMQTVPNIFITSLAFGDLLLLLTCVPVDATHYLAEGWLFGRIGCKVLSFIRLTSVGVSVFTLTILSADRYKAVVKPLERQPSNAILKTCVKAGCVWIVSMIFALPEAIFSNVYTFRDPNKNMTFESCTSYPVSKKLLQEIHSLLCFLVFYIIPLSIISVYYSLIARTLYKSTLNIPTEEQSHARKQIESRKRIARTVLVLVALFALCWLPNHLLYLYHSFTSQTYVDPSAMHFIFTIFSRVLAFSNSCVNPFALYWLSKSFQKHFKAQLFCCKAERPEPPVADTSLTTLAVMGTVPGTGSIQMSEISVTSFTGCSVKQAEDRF

[3] = target: T1, mouse bombesin receptor subtype-3; assay: radioligand binding; displacement of 50 pM [125I]-Tyr42-GRP by unlabeled peptide on disaggregated transfected HEK293 cells; 1 h at 21°C; 24.5 mM HEPES pH 7.4, 98 mM NaCl; bound tracer separated by centrifugation
[4] = target: T2, human bombesin receptor subtype-3; assay: as above

- Ki [1]: > 1000 nM
- Ki [2]: > 1000 nM
B1: neuromedin B, unlabeled ligand peptide of the radioligand binding assays (peptide)
peptide: YKIKVNPRGNLWATGHFM
modifications: ends and bridges not checked
notes: The N-terminal Tyr may have been added for iodination (surmise); No C-terminal amide is printed for this peptide; also called NMB; source: synthetic peptide (Anhui Guoping Pharmaceutical)

- Ki [3]: > 1000 nM
- Ki [4]: > 1000 nM
B2: gastrin-releasing peptide, unlabeled ligand peptide of the radioligand binding assays (peptide)
peptide: APLQPGGSPALTKIYPRGSHWAVGHLM
modifications: ends and bridges not checked
notes: gastrin-releasing peptide, 27 residues; No C-terminal amide is printed for this peptide; also called GRP; source: synthetic peptide (Anhui Guoping Pharmaceutical)
